Experimental data: patent publication US20110207796A1, “ALPHA-SYNUCLEIN KINASE” (Elan Pharma International Limited, priority 2008, published 2011)

B1: Over-Expressed PLK4 (protein, UniProt O00444 1-970, looked up)
Serine/threonine-protein …: MATCIGEKIEDFKVGNLLGKGSFAGVYRAESIHTGLEVAIKMIDKKAMYKAGMVQRVQNEVKIHCQLKHPSILELYNYFEDSNYVYLVLEMCHNGEMNRYLKNRVKPFSENEARHFMHQIITGMLYLHSHGILHRDLTLSNLLLTRNMNIKIADFGLATQLKMPHEKHYTLCGTPNYISPEIATRSAHGLESDVWSLGCMFYTLLIGRPPFDTDTVKNTLNKVVLADYEMPSFLSIEAKDLIHQLLRRNPADRLSLSSVLDHPFMSRNSSTKSKDLGTVEDSIDSGHATISTAITASSSTSISGSLFDKRRLLIGQPLPNKMTVFPKNKSSTDFSSSGDGNSFYTQWGNQETSNSGRGRVIQDAEERPHSRYLRRAYSSDRSGTSNSQSQAKTYTMERCHSAEMLSVSKRSGGGENEERYSPTDNNANIFNFFKEKTSSSSGSFERPDNNQALSNHLCPGKTPFPFADPTPQTETVQQWFGNLQINAHLRKTTEYDSISPNRDFQGHPDLQKDTSKNAWTDTKVKKNSDASDNAHSVKQQNTMKYMTALHSKPEIIQQECVFGSDPLSEQSKTRGMEPPWGYQNRTLRSITSPLVAHRLKPIRQKTKKAVVSILDSEEVCVELVKEYASQEYVKEVLQISSDGNTITIYYPNGGRGFPLADRPPSPTDNISRYSFDNLPEKYWRKYQYASRFVQLVRSKSPKITYFTRYAKCILMENSPGADFEVWFYDGVKIHKTEDFIQVIEKTGKSYTLKSESEVNSLKEEIKMYMDHANEGHRICLALESIISEEERKTRSAPFFPIIIGRKPGSTSSPKALSPPPSVDSNYPTRERASFNRMVMHSAASPTQAPILNPSMVTNEGLGLTTTASGTDISSNSLKDCLPKSAQLLKSVFVKNVGWATQLTSGAVWVQFNDGSQLVVQAGVSSISYTSPNGQTTRYGENEKLPDYIKQKLQCLSSILLMFSNPTPNFH
B2: Over-Expressed PLK3 (protein, UniProt Q9H4B4 1-646, looked up)
Serine/threonine-protein …: MEPAAGFLSPRPFQRAAAAPAPPAGPGPPPSALRGPELEMLAGLPTSDPGRLITDPRSGRTYLKGRLLGKGGFARCYEATDTETGSAYAVKVIPQSRVAKPHQREKILNEIELHRDLQHRHIVRFSHHFEDADNIYIFLELCSRKSLAHIWKARHTLLEPEVRYYLRQILSGLKYLHQRGILHRDLKLGNFFITENMELKVGDFGLAARLEPPEQRKKTICGTPNYVAPEVLLRQGHGPEADVWSLGCVMYTLLCGSPPFETADLKETYRCIKQVHYTLPASLSLPARQLLAAILRASPRDRPSIDQILRHDFFTKGYTPDRLPISSCVTVPDLTPPNPARSLFAKVTKSLFGRKKKSKNHAQERDEVSGLVSGLMRTSVGHQDARPEAPAASGPAPVSLVETAPEDSSPRGTLASSGDGFEEGLTVATVVESALCALRNCIAFMPPAEQNPAPLAQPEPLVWVSKWVDYSNKFGFGYQLSSRRVAVLFNDGTHMALSANRKTVHYNPTSTKHFSFSVGAVPRALQPQLGILRYFASYMEQHLMKGGDLPSVEEVEVPAPPLLLQWVKTDQALLMLFSDGTVQVNFYGDHTKLILSGWEPLLVTFVARNRSACTYLASHLRQLGCSPDLRQRLRYALRLLRDRSPA
B3: Over-Expressed PLK2 (protein, UniProt Q9NYY3 1-685, looked up)
Serine/threonine-protein …: MELLRTITYQPAASTKMCEQALGKGCGADSKKKRPPQPPEESQPPQSQAQVPPAAPHHHHHHSHSGPEISRIIVDPTTGKRYCRGKVLGKGGFAKCYEMTDLTNNKVYAAKIIPHSRVAKPHQREKIDKEIELHRILHHKHVVQFYHYFEDKENIYILLEYCSRRSMAHILKARKVLTEPEVRYYLRQIVSGLKYLHEQEILHRDLKLGNFFINEAMELKVGDFGLAARLEPLEHRRRTICGTPNYLSPEVLNKQGHGCESDIWALGCVMYTMLLGRPPFETTNLKETYRCIREARYTMPSSLLAPAKHLIASMLSKNPEDRPSLDDIIRHDFFLQGFTPDRLSSSCCHTVPDFHLSSPAKNFFKKAAAALFGGKKDKARYIDTHNRVSKEDEDIYKLRHDLKKTSITQQPSKHRTDEELQPPTTTVARSGTPAVENKQQIGDAIRMIVRGTLGSCSSSSECLEDSTMGSVADTVARVLRGCLENMPEADCIPKEQLSTSFQWVTKWVDYSNKYGFGYQLSDHTVGVLFNNGAHMSLLPDKKTVHYYAELGQCSVFPATDAPEQFISQVTVLKYFSHYMEENLMDGGDLPSVTDIRRPRLYLLQWLKSDKALMMLFNDGTFQVNFYHDHTKIIICSQNEEYLLTYINEDRISTTFRLTTLLMSGCSSELKNRMEYALNMLLQRCN

Tested on: synuclein phosphorylation
Test: overexpression of PLK family members with WT-synuclein in HEK-293 cells, phospho-synuclein ELISA
Assay type: cell-based, human
Conditions: for Proportion of total synuclein that is phoshorylated at ser-129: 48 hours post-transfection, with WT-synuclein; for Fold Change in Percent Synuclein Phosphorylation: relative to endogenous kinase (2.0%)
Experimental: HEK-293 naïve cells were transfected with an expression vector encoding PLK1, PLK2, PLK3, or PLK4 under the control of a CMV promoter, or empty vector, together with an expression vector encoding WT-synuclein. All vectors had the sequence coding for the protein of interest. Transfection was accomplished using Lipofectamine 2000 (Invitrogen, Carlsbad, Calif.) with 0.08 μg vector. Cells were washed and harvested 48 hours post-transfection. A Micro BCA (Pierce) total protein assay and total synuclein and phospho-synuclein ELISAs were performed on each plate of treated cells.

Molecule | Proportion of total synuclein that is phoshorylated at ser-129 | Fold Change in Percent Synuclein Phosphorylation
B1 | 1.9% | 1.0
B2 | 79.2% | 39.6
B3 | 42.3% | 21.2
